Laboratory results: patent publication US20230129812A1, “COMPOSITIONS AND METHODS FOR TREATING PULMONARY HYPERTENSION” (Acceleron Pharma Inc., priority 2020, published 2023)

T1: activin A (Homo sapiens, UniProt P08476)
T1 sequence (P08476 311-426): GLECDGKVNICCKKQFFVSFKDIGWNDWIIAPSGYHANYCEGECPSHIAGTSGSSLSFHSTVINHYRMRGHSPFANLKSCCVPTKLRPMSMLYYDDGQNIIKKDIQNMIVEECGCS

T2: GDF11 (Homo sapiens, UniProt O95390)
T2 sequence (O95390 299-407): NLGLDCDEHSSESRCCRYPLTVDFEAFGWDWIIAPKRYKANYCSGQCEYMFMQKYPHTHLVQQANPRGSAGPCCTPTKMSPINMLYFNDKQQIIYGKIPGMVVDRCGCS

T3: GDF8 (Homo sapiens, UniProt O14793)
T3 sequence (O14793 267-375): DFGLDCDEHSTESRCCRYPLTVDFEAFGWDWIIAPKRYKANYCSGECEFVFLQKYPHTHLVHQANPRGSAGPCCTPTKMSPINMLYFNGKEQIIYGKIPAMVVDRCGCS

T4: activin B (Homo sapiens, UniProt P09529)
T4 sequence (P09529 293-407): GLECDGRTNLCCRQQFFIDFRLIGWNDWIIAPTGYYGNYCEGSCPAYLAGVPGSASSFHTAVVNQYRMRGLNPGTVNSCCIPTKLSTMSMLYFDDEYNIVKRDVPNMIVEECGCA


Experiments:
activin A [1] = molecular target: T1, activin A; assay: A-204 reporter gene assay, pGL3(CAGA)12 luciferase; type: cell-based; conditions: for Activin Inhibition Activity: Table 9, cell-based A-204 assay; for inhibition of activin A signaling: A-204 reporter gene assay
Text: (§1) An A-204 reporter gene assay was used to evaluate the effects of ActRIIB-Fc proteins and ActRIIB variant Fc fusion polypeptides on signaling by GDF-11 and activin A. Cell line: human rhabdomyosarcoma (derived from muscle). Reporter vector: pGL3(CAGA)12 (described in Dennler et al, 1998, EMBO 17: 3091-3100). The CAGA12 motif is present in TGF-beta responsive genes (e.g., PAI-1 gene), so this vector is of general use for factors signaling through SMADs.
(§2) Day 1: Split A-204 cells into 48-well plate.
(§3) Day 2: A-204 cells transfected with 10 ug pGL3(CAGA)12 or pGL3(CAGA)12(10 ug)+pRLCMV (1 pg) and Fugene.
(§4) Day 3: Add factors (diluted into medium+0.1% BSA). Inhibitors need to be preincubated with factors for 1 hr before adding to cells. Six hrs later, cells were rinsed with PBS and lysed.
(§5) This is followed by a luciferase assay.
(§6) Activity of ActRIIB-Fc proteins and ActRIIB variant Fc fusion polypeptides was tested in a cell-based assay as described above. Some variants were tested in different C-terminal truncation constructs. As discussed above, truncations of five or fifteen amino acids caused reduction in activity. […]

GDF11 [2] = molecular target: T2, GDF11; assay: A-204 reporter gene assay, pGL3(CAGA)12 luciferase; type: cell-based; conditions: for GDF11 Inhibition Activity: Table 9, cell-based A-204 assay; for inhibition of GDF11 signaling: A-204 reporter gene assay
Text: as §1, §2, §3, §4, §5, §6

GDF8 = molecular target: T3, GDF8; assay: Biacore assay, ActRIIB-Fc captured with anti-hFc antibody, ligand injected (Example 8); type: binding; conditions: for Koff: GDF8, Table 10; for myostatin (GDF8) binding: cell-free Biacore assay, Example 8
Method: (§7) Binding of certain ActRIIB-Fc proteins and ActRIIB variant Fc fusion polypeptides to ligands was tested in a Biacore™ assay.
(§8) The ActRIIB-Fc variants or wild-type protein were captured onto the system using an anti-hFc antibody. Ligands were injected and flowed over the captured receptor proteins.

activin A [3] = molecular target: T1, activin A; assay: as above; type: binding; conditions: for Koff / KD (M): Activin A, Table 10; for activin A binding: cell-free Biacore assay, Example 8
Method: as §7, §8

GDF11 [4] = molecular target: T2, GDF11; assay: as above; type: binding; conditions: for Koff: GDF11, Table 10; for GDF11 binding: cell-free Biacore assay, Example 8
Method: as §7, §8

activin B = molecular target: T4, activin B; assay: Biacore ligand affinity of ActRIIB-hFc forms, steady-state affinity fit; type: binding; conditions: Table 12; Kd by steady-state affinity fit; read-out: Activin B (Kd e−11)
Method: (§9) Affinities of several ligands for ActRIIB(25-131)-hFc and its full-length counterpart ActRIIB(20-134)-hFc were evaluated in vitro with a Biacore™ instrument, and the results are summarized in Table 8 below. Kd values were obtained by steady-state affinity fit due to very rapid association and dissociation of the complex, which prevented accurate determination of kon and koff. ActRIIB(25-131)-hFc bound, for example, activin A, activin B, and GDF11 with high affinity.
(§10) The affinity of ActRIIB variants and other ActRIIB-hFc proteins for several ligands was evaluated in vitro with a Biacore™ instrument. Kd values were obtained by steady-state affinity fit due to the very rapid association and dissociation of the complex, which prevented accurate determination of kon and koff.

activin A [5] = molecular target: T1, activin A; assay: as above; type: binding; conditions: Table 12; Kd by steady-state affinity fit; read-out: Activin A (Kd e−11)
Method: as §9, §10

GDF11 [6] = molecular target: T2, GDF11; assay: as above; type: binding; conditions: Table 12; Kd by steady-state affinity fit; read-out: GDF11 (Kd e−11)
Method: as §9, §10

Row | Molecule | Koff (GDF8) | Koff (activin A [3]) | inhibition of activin A signaling (activin A [1]) | inhibition of GDF11 signaling (GDF11 [2]) | myostatin (GDF8) binding (GDF8) | KD (M) (activin A [3]) | Koff (GDF11 [4]) | GDF11 binding (GDF11 [4]) | Kd (activin B) | Kd (activin A [5]) | Kd (GDF11 [6]) | Activin Inhibition Activity (activin A [1]) | GDF11 Inhibition Activity (GDF11 [2]) | activin A binding (activin A [3])
1 | ActRIIB(R64K 20-129)-hFc: ActRIIB-Fc variant with R64K substitution, residues 20-129 (protein) GRGEAETRECIYYNANWELERTNQSGLERCEGEQDKRLHCYASWKNSSGTIELVKKGCWLDDFNCYDRQECVATEENPQVYFCCCEGNFCNERFTHLPEAGGPEVTYEPPGGGTHTCPPCPAPELLGGPSVFLFPPKPKDTLMISRTPEVTCVVVDVSHEDPEVKFNWYVDGVEVHNAKTKPREEQYNSTYRVVSVLTVLHQDWLNGKEYKCKVSNKALPVPIEKTISKAKGQPREPQVYTLPPSREEMTKNQVSLTCLVKGFYPSDIAVEWESNGQPENNYKTTPPVLDSDGSFFLYSKLTVDKSRWQQGNVFSCSVMHEALHNHYTQKSLSLSPGK | 0.000209 s⁻¹ | 0.000628 s⁻¹ |  |  |  |  |  |  |  |  |  | +++ (Good (wild-type) activity (roughly 1 × 10^−8 KI)) | +++ (Good (wild-type) activity (roughly 1 × 10^−8 KI)) | 
2 | ActRIIB(A24N 20-134)-hFc: ActRIIB-Fc variant with A24N substitution, residues 20-134 (protein) GRGENETRECIYYNANWELERTNQSGLERCEGEQDKRLHCYASWRNSSGTIELVKKGCWLDDFNCYDRQECVATEENPQVYFCCCEGNFCNERFTHLPEAGGPEVTYEPPPTAPTGGGTHTCPPCPAPELLGGPSVFLFPPKPKDTLMISRTPEVTCVVVDVSHEDPEVKFNWYVDGVEVHNAKTKPREEQYNSTYRVVSVLTVLHQDWLNGKEYKCKVSNKALPVPIEKTISKAKGQPREPQVYTLPPSREEMTKNQVSLTCLVKGFYPSDIAVEWESNGQPENNYKTTPPVLDSDGSFFLYSKLTVDKSRWQQGNVFSCSVMHEALHNHYTQKSLSLSPGK |  | 0.000346 s⁻¹ | equivalent to the wild-type molecule | equivalent to the wild-type molecule |  |  | 6.35e-05 s⁻¹ | retains ligand-binding activity that is similar to that of the ActRIIB(20-134)-hFc molecule |  |  |  | +++ (Good (wild-type) activity (roughly 1 × 10^−8 KI)) | +++ (Good (wild-type) activity (roughly 1 × 10^−8 KI)) | retains ligand-binding activity that is similar to that of the ActRIIB(20-134)-hFc molecule
3 | ActRIIB(L79E 20-134)-hFc: alternative form with a glutamate rather than an aspartate at position 79 (protein) GRGEAETRECIYYNANWELERTNQSGLERCEGEQDKRLHCYASWRNSSGTIELVKKGCWEDDFNCYDRQECVATEENPQVYFCCCEGNFCNERFTHLPEAGGPEVTYEPPPTAPTGGGTHTCPPCPAPELLGGPSVFLFPPKPKDTLMISRTPEVTCVVVDVSHEDPEVKFNWYVDGVEVHNAKTKPREEQYNSTYRVVSVLTVLHQDWLNGKEYKCKVSNKALPVPIEKTISKAKGQPREPQVYTLPPSREEMTKNQVSLTCLVKGFYPSDIAVEWESNGQPENNYKTTPPVLDSDGSFFLYSKLTVDKSRWQQGNVFSCSVMHEALHNHYTQKSLSLSPGK | 0.0009 s⁻¹ |  | substantial loss of activin A inhibition | almost wild-type inhibition of GDF11 | retains myostatin and GDF11 binding | Low binding | 0.000274 s⁻¹ | retains myostatin and GDF11 binding |  |  |  | + (Poor activity (roughly 1 × 10^−6 KI)) | +++ (Good (wild-type) activity (roughly 1 × 10^−8 KI)) | markedly decreased (non-quantifiable) binding to activin A

Continued, in another order:

Row | Koff (GDF8) | Koff (activin A [3]) | inhibition of activin A signaling (activin A [1]) | inhibition of GDF11 signaling (GDF11 [2]) | myostatin (GDF8) binding (GDF8) | KD (M) (activin A [3]) | Koff (GDF11 [4]) | GDF11 binding (GDF11 [4]) | Kd (activin B) | Kd (activin A [5]) | Kd (GDF11 [6]) | Molecule | Activin Inhibition Activity (activin A [1]) | GDF11 Inhibition Activity (GDF11 [2]) | activin A binding (activin A [3])
4 | 0.00083 s⁻¹ |  | substantial loss of activin A inhibition | almost wild-type inhibition of GDF11 | retains myostatin and GDF11 binding | Low binding | 0.000439 s⁻¹ | retains myostatin and GDF11 binding | 0.788 nM | 13.5 nM | 0.123 nM | ActRIIB(L79D 20-134)-hFc: ActRIIB amino acids 20-134 with an L79D substitution fused to a human Fc domain (protein) GRGEAETRECIYYNANWELERTNQSGLERCEGEQDKRLHCYASWRNSSGTIELVKKGCWDDDFNCYDRQECVATEENPQVYFCCCEGNFCNERFTHLPEAGGPEVTYEPPPTAPTGGGTHTCPPCPAPELLGGPSVFLFPPKPKDTLMISRTPEVTCVVVDVSHEDPEVKFNWYVDGVEVHNAKTKPREEQYNSTYRVVSVLTVLHQDWLNGKEYKCKVSNKALPVPIEKTISKAKGQPREPQVYTLPPSREEMTKNQVSLTCLVKGFYPSDIAVEWESNGQPENNYKTTPPVLDSDGSFFLYSKLTVDKSRWQQGNVFSCSVMHEALHNHYTQKSLSLSPGK | + (Poor activity (roughly 1 × 10^−6 KI)) | +++ (Good (wild-type) activity (roughly 1 × 10^−8 KI)) | markedly decreased (non-quantifiable) binding to activin A
5 | 4.71e-05 s⁻¹ | 0.000325 s⁻¹ |  |  |  |  | 2.41e-05 s⁻¹ |  |  |  |  | ActRIIB(R64K 20-134)-hFc: ActRIIB-Fc variant with R64K substitution, residues 20-134 (protein) GRGEAETRECIYYNANWELERTNQSGLERCEGEQDKRLHCYASWKNSSGTIELVKKGCWLDDFNCYDRQECVATEENPQVYFCCCEGNFCNERFTHLPEAGGPEVTYEPPPTAPTGGGTHTCPPCPAPELLGGPSVFLFPPKPKDTLMISRTPEVTCVVVDVSHEDPEVKFNWYVDGVEVHNAKTKPREEQYNSTYRVVSVLTVLHQDWLNGKEYKCKVSNKALPVPIEKTISKAKGQPREPQVYTLPPSREEMTKNQVSLTCLVKGFYPSDIAVEWESNGQPENNYKTTPPVLDSDGSFFLYSKLTVDKSRWQQGNVFSCSVMHEALHNHYTQKSLSLSPGK | +++ (Good (wild-type) activity (roughly 1 × 10^−8 KI)) | +++ (Good (wild-type) activity (roughly 1 × 10^−8 KI)) | 
